One assay deals with IGF1R (Homo sapiens, UniProt P08069). The following applies: read-out: Kd of insulin for IGF1R; cited from earlier work.
A further assay has as its system human T-ALL lymphoblasts. Nature of the assay: Cytokine/growth factor subtraction and IGF1R blockade, resazurin-reduction cell growth assay. Format: cell-based. The following applies: for importance of the supplemental cytokine for T-ALL growth: SCF, IGF-1, IL-2, IL-7 added alone or in combination, FIG. 3. The method, then: A resazurin-reduction cell growth assay was performed on (A-B) primary and (C) xenograft-expanded T-ALL. Cells were cultured and passaged as described in FIG. 1. Cytokines and growth factors were subtracted out of the complete media and cells were assayed for growth using a resazurin reduction assay. […] Significance: * p<0.05, ** p<0.01, and *** p<0.001.
Cell Titer Blue (Promega) was added to a co-culture, 5 μl/well for a 12-well plate and 1 μl/well for a 96-well plate, and allowed to incubate for 2-6 hours depending on the number and type of cells present in the well. Cultures were then analyzed using a Tecan GENios Flourometric plate reader. The plate reader was set to read from the bottom at 535 nm excitation and 590 nm emission wavelengths, at optimal gain with an integration time of 80 μs and a lag time of 0 μs. The plate was orbitally shaken in the machine for 5 sec prior to reading.
Studies were also conducted with human T-ALL primary cells (FIGS. 3A-3B) and human T-ALL cells that were previously expanded in immunodeficient NSG mice (FIG. 3C).
A general note: The colour change of resazurin is a common sign of viable cells or microbes.

By Kd is commonly meant the concentration at which binding is half-saturated. As to “insulin: ligand for a tyrosine kinase transmembrane receptor (CD220); component of the basal medium”, the equilibrium dissociation constant (Kd) with IGF1R is 200 to 400 nM.
For “IGF-1: ligand for a tyrosine kinase transmembrane receptor (CD221); recombinant supplement”, in the assay with human T-ALL lymphoblasts, the “importance of the supplemental cytokine for T-ALL growth” value is given as “may be dispensable”.

B1: CP-751,871: an IGF-1 receptor (IGF1R) blocking antibody, specific for human IGF1R (antibody, chains of the INN, looked up)
heavy: EVQLLESGGGLVQPGGSLRLSCTASGFTFSSYAMNWVRQAPGKGLEWVSAISGSGGTTFYADSVKGRFTISRDNSRTTLYLQMNSLRAEDTAVYYCAKDLGWSDSYYYYYGMDVWGQGTTVTVSSASTKGPSVFPLAPCSRSTSESTAALGCLVKDYFPEPVTVSWNSGALTSGVHTFPAVLQSSGLYSLSSVVTVPSSNFGTQTYTCNVDHKPSNTKVDKTVERKCCVECPPCPAPPVAGPSVFLFPPKPKDTLMISRTPEVTCVVVDVSHEDPEVQFNWYVDGVEVHNAKTKPREEQFNSTFRVVSVLTVVHQDWLNGKEYKCKVSNKGLPAPIEKTISKTKGQPREPQVYTLPPSREEMTKNQVSLTCLVKGFYPSDIAVEWESNGQPENNYKTTPPMLDSDGSFFLYSKLTVDKSRWQQGNVFSCSVMHEALHNHYTQKSLSLSPG
light: DIQMTQFPSSLSASVGDRVTITCRASQGIRNDLGWYQQKPGKAPKRLIYAASRLHRGVPSRFSGSGSGTEFTLTISSLQPEDFATYYCLQHNSYPCSFGQGTKLEIKRTVAAPSVFIFPPSDEQLKSGTASVVCLLNNFYPREAKVQWKVDNALQSGNSQESVTEQDSKDSTYSLSSTLTLSKADYEKHKVYACEVTHQGLSSPVTKSFNRGEC
Consider B1, for which the “effect of IGF1R blocking antibody on cell growth” value with human T-ALL lymphoblasts (T-ALL on mouse MS5-DL1 feeders) is “significantly impaired cell growth”.

B2: IL-7: ligand for the IL-7 receptor; recombinant cytokine supplement (protein, UniProt P13232 26-177, looked up)
Interleukin-7: DCDIEGKDGKQYESVLMVSIDQLLDSMKEIGSNCLNNEFNFFKRHICDANKEGMFLFRAARKLRQFLKMNSTGDFDLHLLKVSEGTTILLNCTGQVKGRKPAALGEAQPTKSLEENKSLKEQKKLNDLCFLKRLLQEIKTCWNKILMGTKEH
Turning to B2, the “importance of the supplemental cytokine for T-ALL growth” value in the assay on human T-ALL lymphoblasts is “the most important factor”.
